Data: publication PMC10816986, “The Role of Key Amino Acids of the Human Fe(II)/2OG-Dependent Dioxygenase ALKBH3 in Structural Dynamics and Repair Activity toward Methylated DNA” (International Journal of Molecular Sciences, 2024)
Where a chain is given by its changes, count along the chain named. In names and notes the source's numbering stands.

B1: wt ALKBH3: wild-type human Fe(II)/2OG-dependent dioxygenase ALKBH3 with N-terminal His-tag, expressed in E. coli (protein, UniProt Q96Q83 1-286, looked up)
Alpha-ketoglutarate-dependent …: MEEKRRRARVQGAWAAPVKSQAIAQPATTAKSHLHQKPGQTWKNKEHHLSDREFVFKEPQQVVRRAPEPRVIDREGVYEISLSPTGVSRVCLYPGFVDVKEADWILEQLCQDVPWKQRTGIREDITYQQPRLTAWYGELPYTYSRITMEPNPHWHPVLRTLKNRIEENTGHTFNSLLCNLYRNEKDSVDWHSDDEPSLGRCPIIASLSFGATRTFEMRKKPPPEENGDYTYVERVKIPLDHGTLLIMEGATQADWQHRVPKEYHSREPRVNLTFRTVYPDPRGAPW
modifications: N-terminal His-tag
notes: wild-type human Fe(II)/2OG-dependent dioxygenase ALKBH3 with N-terminal His-tag, expressed in E. coli
B2: Y143F ALKBH3: ALKBH3 mutant, Tyr143 replaced with Phe (protein, UniProt Q96Q83 1-286, looked up, variant Y143F)
Alpha-ketoglutarate-dependent …: B1 Alpha-ketoglutarate-dependent … with Y143F
B3: Y143A ALKBH3: ALKBH3 mutant, Tyr143 replaced with Ala (protein, UniProt Q96Q83 1-286, looked up, variant Y143A)
Alpha-ketoglutarate-dependent …: B1 Alpha-ketoglutarate-dependent … with Y143A
B4: H191A ALKBH3: ALKBH3 mutant, His191 replaced with Ala (protein, UniProt Q96Q83 1-286, looked up, variant H191A)
Alpha-ketoglutarate-dependent …: B1 Alpha-ketoglutarate-dependent … with H191A
B5: L177A ALKBH3: ALKBH3 mutant, Leu177 replaced with Ala (protein, UniProt Q96Q83 1-286, looked up, variant L177A)
Alpha-ketoglutarate-dependent …: B1 Alpha-ketoglutarate-dependent … with L177A

Target: not listed separately
Assay: Equilibrium fluorescence titration with Co(II)
Type: binding
Details: 1 µM apoprotein, 25 °C; read-out: Dissociation constant Kd, Co(II)
Excerpt: To investigate the impact of selected mutations on ALKBH3’s ability to bind its cofactor, co-substrate, and methylated DNA, the fluorescent titration method was employed. It is well-established that enzyme–ligand binding typically leads to a protein conformational change, which in turn can alter the fluorescence intensity of tryptophan and tyrosine residues within the protein sequence. […] In this study, transitional metals (Fe(II), Ni(II), and Co(II)), 2OG, and the m3C substrate served as titrants. Protein fluorescence quenching was measured after the addition of an excess of the ligand to 1 µM of enzyme (Supplementary Figure S2). To determine the equilibrium dissociation constant’s Kd values, the resulting titration curves were analyzed using a non-linear regression algorithm (see Section 4.3 of “Materials and Methods” for details). […] As indicated by the data presented in Table 2, the stability of the wt ALKBH3 apoenzyme’s affinity to various ligands and damaged DNA generally corresponds to the stability of such complexes for AlkB and ALKBH2 enzymes. […] The binding of Ni(II) and Co(II) ions of similar radii was weakened by approximately two-fold. […] This behavior is more characteristic of the bacterial homolog AlkB rather than human ALKBH2 [7].
The intrinsic tryptophan fluorescence quenching was monitored at the maximum of emission (345 nm, in most cases) using an excitation wavelength of 280 nm, and 5 nm slits. An amount of 2 mM of (NH4)2Fe(SO4)2·6H2O, 2 mM of NiSO4×7H2O, 2 mM of CoSO4·7H2O, 2 mM of 2OG, or 100 µM of m3C substrate was titrated into 1 µM of apoprotein (a free enzyme with no metal or 2OG added) in the presence of 50 mM of HEPES-KOH (pH 7.8), 50 mM of KCl, and 10 mM of MgCl2. When titrating with DNA, the buffer was supplemented with 2 mM of EDTA. The dissociation constant Kd for a model of one-step binding (E + L ↔ EL) was determined using Equations (2)–(5) and a non-linear regression algorithm in the OriginPro 8.1 software (OriginLab Corp., Northampton, MA, USA):(2) Kd=E[L]/[EL] (3) F=f0+f1E+f2[EL] (4) e0=E+[EL] (5) l0=L+[EL] where F is the observed fluorescence intensity at any given ligand (L) concentration; f0 is the background fluorescence; f1 and f2 are partial fluorescence intensities of the free enzyme (E) and enzyme–ligand complex (EL), respectively; e0 and l0 are total concentrations of the enzyme and ligand.
Figure S2. Equilibrium binding of the wild-type and mutant ALKBH3 proteins to transition metals, 2OG, or m3C-containing DNA. The quenching of the enzyme ﬂuorescence is shown as a function of Fe(II) (A), Ni(II) (B), Co(II) (C), 2OG ( D), and single-stranded m3C substrate (E). The protein concentration was 1 µM. In the course of titration by Fe(II), a sodium ascorbate (1mM) was added to keep the metal in a reduced state. Experimental data points were ﬁtted to a single-site binding mode l (see “Materials and Methods”). Each trace represents the average of three technical […]
(§1) (1 picture or pasted object on this page, not shown here)

B1 and B2 are within 1.5-fold of each other in Kd: 52 ± 4 µM for the first, 40 ± 3 µM for the second.

B3 and B4 are within 1.5-fold of each other in Kd: 44 ± 4 µM for the first, 59 ± 6 µM for the second.

In the case of B5, the Kd is reported as 98 ± 9 µM.

Tested on: single-stranded DNA substrate m3C_FAM
Assay: Enzymatic demethylation of single-stranded m3C DNA (chemical quenching, HpaII cleavage, PAGE)
Type: biochemical
Details: 90 min reaction, 2 µM enzyme and m3C_FAM, 40 µM Fe(II), 1 mM 2OG, 25 °C
Protocol: The enzymatic activity of wt ALKBH3 dioxygenase and the Y143F, Y143A, L177A, and H191A mutants was investigated in a reaction with a 15nt single-stranded oligonucleotide substrate containing m3C at the ninth position from the 5’-end (see Section 4).
An enzymatic hydroxylation of a single-strand m3C-containing DNA was studied using a chemical quenching technique recently described for the ALKBH2 dioxygenase in [7]. Briefly, a typical reaction mixture contained an equimolar amount (2 µM) of the protein and FAM-labeled DNA substrate (m3C_FAM) in a buffer consisting of 50 mM of HEPES-KOH (pH 7.8), 50 mM of KCl, 10 mM of MgCl2, 1 mM of 2OG, 2 mM of sodium ascorbate, and 40 µM of (NH4)2Fe(SO4)2·6H2O. An equal volume of 0.2 M NaOH was added to […] of aliquots of the mixture to terminate the reaction at certain time points. After neutralization with HCl and desalting, each of the aliquots was supplemented by the complementary DNA strand and treated with the HpaII restriction endonuclease specific to the repaired sequence (CCGG) according to the manufacturer’s protocol. The resulting reaction product was separated from the substrate using denaturating PAGE and visualized by the Amersham Typhoon Imager (Cytiva, Uppsala, Sweden) (Supplementary Figure S1). Data for the wt, Y143F, and Y143A proteins were converted to mol/L units and then fitted to a single exponent (Equation (1)), where P, P0, and Pmax are amounts of product at any given time, at the zero-time point, and the end time point, respectively; kobs is the observed rate constant. (1) P=P0+Pmax(1−exp−kobst) […]
Figure 2 The catalytic activity of wt and mutant ALKBH3 proteins on single-stranded DNA substrate m3C_FAM. Time courses of the dealkylated product accumulation were obtained at 25 °C by mixing an equimolar amount (2 μM) of enzyme and FAM-labeled DNA substrate dissolved in the reaction buffer containing 40 μM Fe(II) and 1 mM 2OG. Each reaction time point is the mean ± SD of three technical replicates.
Figure S1. PAGE analysis of ALKBH3 repair activity towards the m3C -containing substrate. ALKBH3 at 2 µM was incubated with an equimolar amount of a FA M - labelled single-stranded substrate m3C_FAM. The reaction was quenched at each time point by the addition of an equal volume of 0.2 M NaOH.
as §1

First: B2
Second: B3
The “maximum DNA substrate demethylation degree (product yield)” value of the first is higher: 30% for the first, 10% for the second.

In the case of B4, the “maximum DNA substrate demethylation degree (product yield)” value is reported as “undetectable”.
For B5, the “maximum DNA substrate demethylation degree (product yield)” value was ≤ 7%.

Same assay, conditions: single exponential fit of product accumulation

Going from B1 to B2, the “observed rate constant for demethylation, kobs” value falls from 0.70 ± 0.08 min⁻¹ to 0.17 ± 0.02 min⁻¹.
